In the DeepSol protein solubility set:

Test: soluble on expression in E. coli; label from the status in PepcDB or PDB records
For “MGSDKIHHHHHHMTKHLDVGQCLTIIEGTNTALKSYMDHFDFMEAAISRVLELEGSLKGKGGEALLRNYQELQLPAIRAARAFISSMKEMGEKLRSLILSFEPSENGMVSEDFYRNQVTRGYDRFEQFMEQNKAEVDAIAASVSHIIDLGKLDIRHVQDRVDDARKHANDTVEGLYELDHEGMRLMRELQRDMAELKAILKKVTEWTVSGGALLNGVDLNDVRSHFADKTLHTKAPEVSVKLSSPNPLIQYANDFPLRFKYDTMRSIMKVFDLSHHHKWFSNRIKSLPLTSLFIMARWNVNTKSDNYLKVH”, the “soluble on expression in E. coli” value was “not soluble”. For “MGSDKIHHHHHHMTKPMHTPPLVPPQAWEAAREQLLVKEKALTRARDALAAERRQMPWMAVEKEYAFEGPEGRVSLVDLFEGRRQLIVYRAFFEPGVFGWPDHACRGCSMVADQVAHLAHLNARDTTLVFVSRAPQADIARLKARMGWQIPWFTVTDSFDADFGVDEWHGTNVFYRDGDRVFRTYFINNRGDEQMGSTWNYLDITPLGRQEVWEDSPEGYPQTPTYKWWNWHDSYVKDAEPDKKWVEVSDAGEAAFRNQD”, the “soluble on expression in E. coli” value was “not soluble”. For “MGSDKIHHHHHHMTKQSKTQIRICFVGDSFVNGTGDPECLGWTGRVCVNANKKGYDVTYYNLGIRRDTSSDIAKRWLQEVSLRLHKEYNSLVVFSFGLNDTTLENGKPRVSIAETIKNTREILTQAKKLYPVLMISPAPYIEQQDPGRRRRTIDLSQQLALVCQDLDVPYLDVFPLLEKPSVWLHEAKANDGVHPQAGGYTEFARIVENWDAWLNWFR”, the “soluble on expression in E. coli” value was “soluble”. For “MGSDKIHHHHHHMTKRIMFTGGSGKAGRHVVQYLVEQGCQVLNIDTKPLDNPKVRTLITDITDSGQVFNALSSYMGLHEFDPSLRPQPVDAVVHFAAIPRIMITPDNEVFRINAMGTYNVIEAAVKLGIRKVIVASSETTYGLVFANEPRDPKYFPLDEEYDVDPMDSYALSKVVNEKTARAFAQRNGTDIYALRIGNVIEPHEYSLFPKWFADPGFRKRIAWSYIDARDLGQITLRAIEKDGLGYQVFNAANDDTSSDLPTAELLKRFYPNVPVKAALGEYETLLSNRKARDMLGFRPEHSWRKYVK”, the “soluble on expression in E. coli” value was “not soluble”. In the case of “MGSDKIHHHHHHMTLEIAQKRTIKLLKSSTPKEKLNKFVKGYVPTHYKRLSISMEKAIELAIIGATESLAYYGDRLYFTQALLMGAVVSGEYDNIIVVTPSQYGKSWLSSRIAVWLADHNRRCYVAGGKKDTTDIIMQHVTDTLQTVDESIARKLLEPVDKLERLQTGLSKRKISFSGGGSIEGISLGEHFKGNKSGNQAIGRGGDYIIDESAFVSNETYAELGRRNFANVDGKNYLSFEISNPHNKGRFYDKLTQENIPKGMLVVWADVRTAFEEDRVKSIEQVISSEFFQNKSTCQRYFLCELPDENEDGMFGTPQTEEEHTEKNWEYFLGVDSAYKGKDKIKATLSALDAQGQVHVIDTIEIEKGDWQDGVTSKKIITQLLMIIEHFEVKGVCVDVGYGVYIVEGLAHINGDFELHGINFGAGTTKERVEKNHYSAKYGANKRAEMHIDLQENIDNRNIFFTEKVYEEVIDELVLVSSKIKSNGKTAIVPKEEIKAKLGHSPDTLDSVLLSLHAIILYKLNERFYIYS”, the “soluble on expression in E. coli” value is reported as “not soluble”. In the case of “MGSDKIHHHHHHMTLQFLGAAREVTGSCHLVTVAGKHLLLDCGLIQGGKADELRNHEPFVFDPQTIVAVVLSHAHIDHSGRLPLLVKAGFDGPIYTHKATAELCAIMLKDAAMLQVRDTERTNKKRAKHDLAPLEPLFTVEDAEQAISQFVSLEYGQVTRVIPHVDICLSDAGHILGSALVELWLGEGKSQKKIVFSGDLGRAGMPILQNPTLVDTADLVLMESTYGNRFHRSWTDTLAELKDIFAKTVNESQGNILLPAFSVGRAQELLYLFHLYAKEWDLGRWKICLDSPMAIEATRVYVNNYPLMDEDFKRFTRQHPGQHPLLSNVEFIQTTEESIALNEVHKGLIIIAGSGMCNGGRIRSHLEHNLWRSECDVIICGFQALGTPGRALVDGAKELTIHGNSVNVAAKLHTVGGLSAHADQAELLRWYRHFEEQPPLVLVHGEPEAQQGLVAVMNQDPKTKPKALAIATRGDMLDLTALPKLVWVTA”, the “soluble on expression in E. coli” value is reported as “not soluble”. In the case of “MGSDKIHHHHHHMTNIEVEINDNYICVYERLNDDCIRLLHMYGKNPVCVVPDMLDGMRVTELAEYCFSFKSMPEKLKTELGIDDILRPDMTELCDDYIERVILPDGMKKIGRLCFYNCSRLTMLELPSDICDVDGDAFMNCTKLYMLVMRGSPKDKSCLKQILSQISTLVRVRWADSDGNAIAQACFFEYDQTYDEIGPAHIFKLNMNGEGFRARQAFMDRVFVWKQYDEIFSEAIAQESEDDLLDMAFYRLIYAYELSKEARQQFLEYIVNHKKRLSELIIRKRDSGLLQSFLELKDGEENFIADVLAVTDMLALAAQDEWSEGSVILHRFKKENLSVSRKRRFEF”, the “soluble on expression in E. coli” value is reported as “not soluble”. In the case of “MGSDKIHHHHHHMTNMKQLCLICLAFICLFFLDSCGNKNTFRVEGSIAGYEDTAQVYLTKIIGSDLSVLDSVNPDRKGRFSFVAQADSTPSFYQIKLRKQHINFAARIGSEINIQVGRNSFSDYVIEDNQGPDNNNIRKIALLKEQADNRLDHLYRSYQENKLDASQYQDTIAKVIDEFKTTLRNDFIFQDPKSPASYFALFQQKDGLLYFNVYDPMDAKAFAAVATAYDTYYPTSSYTKSVRDLSLLGIAAMRRDRVAKDITTRKIEVKDIPETILIDRKGNEQPLSKVVETNDRVLIVFTSYQAEWSPSLVKEQRALYQRHCNNGFQIYEISVDKDLYFWQNATRTLPWITVNDSEGKAALSFNVRSLPTFFLIQDGELKRLQRLESL”, the “soluble on expression in E. coli” value is reported as “not soluble”. With “MGSDKIHHHHHHMTPLPSFRLSWPSALQRLCHAPAGKHMPAGAYQVHFPRLELVLSNRYHYSHEGCENASLSAQEALFIPAEHWTLPNWCANGEVLHILFDYARIGFSLVRSGPQGVISTHKESMVLAQRGSLNGMLDVLAGLCRDGADPEVLRLQGQALLALLQSLYDEARDSQWQQGGNLFRAICLYISEHLYAPLTREDVALRFSISATHLSRLFRQHLGLGFCEFLSHARLDLAKALLRQGQLPLSRVAARCGYADVNYFHRVFKQRFAMTPCAYRREFA” the “soluble on expression in E. coli” value was “not soluble”. For “MGSDKIHHHHHHMTPRELTCDETLAEMARVLTVEAAALTQMASEVGDPQLKAVEILEAMEGRVIVSGVGKSGHIGNKIAATLASTGTPAQFVHATEASHGDLGMVTPRDVCLVISNSGETSELADIVTYSRRFAIPLIAITRKADSTLATQADVVLLLPDAPEACGIGMAPTTSTTATLAMGDALAVALMKRRGFEREDFKVFHPGGKLGAQLMLVDGLMHTGEALPLVAPETPMTEALLIMTAKGFGLAGLVEGGRLTGIITDGDLRRNMDGLMARSAGEVATRGPKVIRRGSLASEALHDMNSRKISALFVLDNEDRVAGLLHIHDCLRAGLA”, the “soluble on expression in E. coli” value was “not soluble”. With “MGSDKIHHHHHHMTPRPVSSVARLVEDNAQDFLRAVQAKLLTLAPQARGHFPTADDATHISIAEMVSALLEGTGEEGKVDDKTLEFFKEAALDARRFGLTPEMHSALGEAVRSELLSLCEDLPFENVLFAERAIAATTAVSVEAVREADEAHIPASYQAEIVEVEKRSRRFTVVRMQAETQLPYLPGQYLAATADFLPNTWRYLCPSIPTNEWGQVEFHIQSDADDIAGLLATTRLGDKWRLGPGRGDFGQSKISSGNDLLFIAHGTGLAPLRAYMFELMNQAAPPRLHFFVGADYPGELYELTGMWNFAAASPWLSVVPVSTHDKDAWWVQATEASQPPRGLHLHQTGSMAKIVTEAGAWADRDVLIAGPESWARDVRRAMIRRGTPAQQIEILGF” the “soluble on expression in E. coli” value was “not soluble”. In the case of “MGSDKIHHHHHHMTRKFGEIAFTPEVQAAQEERGSRQTYDRYIANGPANDTITPNIAKFIAQLEGFYLGTVSSNGYPYIQFRGGSPGFLKVLDEKTLGFADFSGNLQYITVGNLSSNDKAFLFLMDYRHRQRIKIWGRAEYIEGESSLLEQVRVADYPAQVERAILFHVEATSENCPQHIPVRYSEREVKAMMAPLENRIAELEQQLSEQNSSSKTGKQLPSRD”, the “soluble on expression in E. coli” value is reported as “not soluble”. In the case of “MGSDKIHHHHHHMTRNGIGIRTAQVRSERLTGQIHVYDGVGKGKSQAALGVVLRSIGLGINAPNNSNRVLLLRFLKGPERDYDEDGAIAALQRGFPHLIDQVRTGRAEFFGPEEITTFDRSEAGRGWDVAKGAIASGLYSVVVLDEINPVLDLGLLSVDEVVGTLKSKPQELEIIATGRGAPQKLLDIADLHSEMKPLHHPKATELLMKGIEIYTGAGKGKSTSALGKALQAIGRGINHPGSTRVLIMQWLKGGSGYTEDAAIAALRQSYPEVVDHQRCGRDAIVWRNSRQELDYVEAERGWEIAKVAIASGLYKTIILDELNPTVDLELLPVEPIVQALLRKPRDTEIIITGRCQNQPAYFDLASIHSEVYCHKHYANQGVELKRGVDF”, the “soluble on expression in E. coli” value is reported as “not soluble”. With “MGSDKIHHHHHHMTRYRFFHTADIHLGKTYRTSTGEAERYEDFFRMLGSIVSDAIAARVDFVLIAGDLFHTGQILPRTFARTIETLQPLKNAGIPCIAVEGNHDWIHRRDSISWMEALSQMGYIHLLRPSRTETGGYRFSPFDYEQGMGGHIEVNGVNIYGLGYIGTQAGAHVARICEAITTTNNILLFHVGVWTYSPVEIGNMKPEEALPLADVFDYVALGHGHKPYIIATPEGRAYAFNPGSPECVNFGEEKYDKGYYLVTVNDGVYTHEFRPTNPRPMLVTTIDLDGAGDAETALTRFRNVVAAKIASFSDDRQPLLEIKLTGRVGFHPFELGRERLRLALEEICNPLHVEIKNHLSLVTAGGGAESEKKSLAEIEREVLRELISAKSEYKGREDELVRLSLAIRDQVLKGETDGEELLGLLMREPA” the “soluble on expression in E. coli” value was “not soluble”. In the case of “MGSDKIHHHHHHMTSADPPTLPETSVDVPPTSAEGLLKLITNEYDGLPRQLKRIASYMSQQSDRIMVDRISDIARECEVHPSAIVRFSQRFGFSGFSEMQTLFREAYTHKTTPVQNYQQRIRSMIVNKSQKASAGDLARECVNATLSGLERLSADLDDEEFEKAVDLVVNADNIYVVGVRRSFAVADYLVYNLQHTNKRIHLISGLGGSYREQMRSVRANDLVIAISFTPYGKETQHCLRIAQHHQAKTLIITDSNLSPLAKRANSVLLVNEGSSFAFRSLSATLCLCQALFIAVAYRLELKVDEIHEQVGFDD”, the “soluble on expression in E. coli” value is reported as “not soluble”. With “MGSDKIHHHHHHMTSIVFNGSYITKKNTGVGVVSKDLLYSLSANKITTLIPKDLDIKGDIYIPNNLSPGTGLKSHFRRLYWLQNSVPKLMNNLNAEYFLSPLLEAPLFSNIKSIVLAHDLIPIRYPSVSFLTLYYLIYIPLILKQSKLILCNSVSTANDLHRFYKVPMHKLFPIKLGFNNKKYYPIKKIRKKFFLIIGRHNPHKNLRRVIKAFAYSKINDYKLIFVGPFDKRHTPSLLKLIDKHNIRHLCVWKGWIDDDEKLSLLNECHALIIASLWEGFGLPALEAMACGTPVIASDRGALREVMGNYGYFINPFNIQSIACAMNAVINDKKCFENALQEGPSRAESFNWLDTARTIEKIIQEID” the “soluble on expression in E. coli” value was “not soluble”. With “MGSDKIHHHHHHMTSPRIISIEGPMGAGKTSLARQLAQSLGGRMILEAPAQNPFLSRFYQGPGAALATELQFFMQRREQWRHRDDSSWLISDHSARKDEIFTPLTLDAEEHHLFNELRMALDFHPAPADLMIFLDAPLAVLMKRIRARGDAYEQALAPDYLARVQAAYRAWQANYALPRMNVDSAQVDFVHDPRHTERLIDAVRHRLKDAEEQDA” the “soluble on expression in E. coli” value was “not soluble”. For “MGSDKIHHHHHHMTSPSPDQVIRQEILALSAYHVPPAKDMVKLDAMENPYRLPPFLCEEISRIAADTSINRYPDPHAAALKEVLSTTLSVPAGMEIMLGNGSDEIIQIIMLAAAKPEAKLLTIEPGFAMFKMIATFANMQYIGIPLKPDFSLDIDRMLAAIERHQPSVIFLAYPNNPSGNLFDTSALEKIIEISPGLVVIDEAYHPFAGKSFIGRLADYPNLLVMRTLSKLGLAGLRLGLLAGRPEWLSHLEKLRLPYNVNVITQLVATKIMQHYDVLQQQADAIRQTRTRLRTFLENLNGIEVFPSNANFILFRLDGASQIFRLLQQHGILVKNLDNSHPLLKNCLRVTVGTPEENDRFCNTLQDLIAGN”, the “soluble on expression in E. coli” value was “not soluble”.
